Laboratory results reported in patent CN114349852A.

Columns and labels:
[1] = biological target: H3N2流感病毒血凝素蛋白 (A/Texas/50/2012) (H3N2 influenza A virus (A/Texas/50/2012)); assay: indirect ELISA on coated H3N2 hemagglutinin, ascites
[2] = biological target: H3N2流感病毒血凝素蛋白 (A/Texas/50/2012) (H3N2 influenza A virus (A/Texas/50/2012)); assay: indirect ELISA on coated H3N2 hemagglutinin, hybridoma culture supernatant

B1: 抗H3N2流感病毒血凝素蛋白单克隆抗体ZJU32-01 (antibody, V domains shown)
VH: QVQLQQSGAELMKPGASVKISCKATGYIFSSYWIEWVKQRPGHGLEWIGEILPGSGRTNYKEIFKGKATFTADTSSNTAYMQLSSLTSEDSAVYYCARTRTTGSSDWGQGTTLTVSS
VL: DVLMTQTPLSLPVSLGDQASISCRSSQTTVHSNGNTYLEWYLQKPGQSPKLLIYKVSNRFFGVPDRFSGSGSGTDFTLKISRVEAEDLGVYYCFQGSHVPYTFGGGTKLEIK
效价 (ELISA titer) (dilution (1:x)) [1]: 2048
效价 (ELISA titer) (dilution (1:x)) [2]: 64
